Biological target: T1, PfMLC-B C-terminal domain (MLC-B CTD), residues 497-652 (Plasmodium falciparum, UniProt Q8III1 497-652)
T1 construct: Myosin light chain B (MLC-B), Plasmodium falciparum 3D7, PlasmoDB PF3D7_1118700; C-terminal 156 amino acids, residues 497-652 (3' 471 bp of mlc-b cDNA, primers 27 and 28); Cloned into BamHI/XhoI of pGEX6P1; a few vector residues may remain after PreScission cleavage; also called PfMLC-B CTD; calmodulin-like C-terminal domain; source: E. coli BL21 Gold, purified (glutathione-Sepharose, PreScission …)
T1 sequence: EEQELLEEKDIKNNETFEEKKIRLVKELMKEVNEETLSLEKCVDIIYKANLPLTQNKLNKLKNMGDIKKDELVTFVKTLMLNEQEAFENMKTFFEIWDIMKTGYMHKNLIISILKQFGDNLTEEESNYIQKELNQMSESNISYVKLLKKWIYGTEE
Test: thermal unfolding monitored by CD at 222 nm; MLC-B CTD alone or with 1.5- or 3-fold molar excess of peptide; heating 1 °C/min, 20-90 °C
Details: both partners purified

B1: Myosin B peptide Asn780 to His800 (peptide)
peptide: Ac-NIKNLQLAQAYFRKYKYIKEH-NH2
notes: Myosin B (MyoB), Plasmodium falciparum, residues 780-800; also called Asn780 to His800 peptide; peptide from the extreme C terminus of MyoB; source: synthetic peptide
B1 was tested, and the “Tm of MLC-B CTD with a 1.5-fold molar excess of the peptide (59 °C without peptide)” value was 67 °C and the “Tm of MLC-B CTD with a 3-fold molar excess of the peptide (59 °C without peptide)” value was 70 °C.

Reference: PMC4424349, “The Plasmodium Class XIV Myosin, MyoB, Has a Distinct Subcellular Location in Invasive and Motile Stages of the Malaria Parasite and an Unusual Light Chain*” (The Journal of Biological Chemistry, 2015)
